Where a chain is given by its changes, count along the chain named.

Data set [1] addresses T1, CasX variant 119 (synthetic construct).
T1 chain: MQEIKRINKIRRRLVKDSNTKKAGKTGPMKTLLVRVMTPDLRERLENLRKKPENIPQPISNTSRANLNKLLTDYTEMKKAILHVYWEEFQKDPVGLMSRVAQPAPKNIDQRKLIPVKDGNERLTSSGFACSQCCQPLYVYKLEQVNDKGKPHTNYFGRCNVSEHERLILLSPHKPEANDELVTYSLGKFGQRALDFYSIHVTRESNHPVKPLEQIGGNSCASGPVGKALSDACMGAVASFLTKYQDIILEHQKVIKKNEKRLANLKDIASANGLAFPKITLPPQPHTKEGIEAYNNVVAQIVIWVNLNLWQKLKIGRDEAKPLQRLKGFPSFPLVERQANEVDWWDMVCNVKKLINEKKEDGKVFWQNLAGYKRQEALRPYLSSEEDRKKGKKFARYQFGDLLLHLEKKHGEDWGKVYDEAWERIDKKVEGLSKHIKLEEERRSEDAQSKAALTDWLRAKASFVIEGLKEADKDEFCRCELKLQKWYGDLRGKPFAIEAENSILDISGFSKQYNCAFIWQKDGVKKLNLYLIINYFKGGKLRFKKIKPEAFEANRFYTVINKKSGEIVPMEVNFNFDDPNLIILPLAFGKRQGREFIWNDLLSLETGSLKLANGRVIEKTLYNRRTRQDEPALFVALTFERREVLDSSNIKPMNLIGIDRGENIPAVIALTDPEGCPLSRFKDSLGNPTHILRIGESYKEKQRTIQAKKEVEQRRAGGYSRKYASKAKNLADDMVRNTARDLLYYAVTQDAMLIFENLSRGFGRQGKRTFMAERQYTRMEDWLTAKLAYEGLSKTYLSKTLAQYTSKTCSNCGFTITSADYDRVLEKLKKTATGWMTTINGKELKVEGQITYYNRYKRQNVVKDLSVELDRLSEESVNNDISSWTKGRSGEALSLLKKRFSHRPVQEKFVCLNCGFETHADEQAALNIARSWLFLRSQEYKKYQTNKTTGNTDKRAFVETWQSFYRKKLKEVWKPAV
The data set is described as follows: cleavage_in_vitro.

Data set [2] addresses T2, CasX variant 438 (synthetic construct).
T2 chain: T1 chain with F399L, L404K, I658V, Y856R
Kind of data set: cleavage_in_vitro.

B1: gRNA scaffold 174 + spacer 7.37 ; 7.37 TTC PAM target (ssRNA ; dsDNA)
RNA: ACUGGCGCUUUUAUCUGAUUACUUUGAGAGCCAUCACCAGCGACUAUGUCGUAGUGGGUAAAGCUCCCUCUUCGGAGGGAGCAUCAAAGGGGCCGAGAUGUCUCGCUCC
DNA 1: TGAAGCTGACAGCATTCGGGCCGAGATGTCTCGCTCCGTGGCCTTAGCTGTGCTCGCGCT
DNA 2: AGCGCGAGCACAGCTAAGGCCACGGAGCGAGACATCTCGGCCCGAATGCTGTCAGCTTCA
With B1, the activity in data set [1] stood at 8.33 min⁻¹; in data set [2] it was 4.94 min⁻¹.
